From patent US20130123462A1 (INDIANA UNIVERSITY RESEARCH AND TECHNOLOGY, published 2013)
Like-named read-outs stand apart in the source and are kept apart here. Bridges are numbered along the chain shown (N, C = ends). Where no end group is shown, it is not given here. [ ]: non-standard residue; d: D form. PhLac = O=C(O)[C@@H](O)Cc1ccccc1

What was measured:
Assay in all cases: cell-based or functional assay
glucagon receptor [1] = target: T1, glucagon receptor (UniProt P47871 26-477, limits assumed)
T1 sequence (P47871 26-477 limits assumed): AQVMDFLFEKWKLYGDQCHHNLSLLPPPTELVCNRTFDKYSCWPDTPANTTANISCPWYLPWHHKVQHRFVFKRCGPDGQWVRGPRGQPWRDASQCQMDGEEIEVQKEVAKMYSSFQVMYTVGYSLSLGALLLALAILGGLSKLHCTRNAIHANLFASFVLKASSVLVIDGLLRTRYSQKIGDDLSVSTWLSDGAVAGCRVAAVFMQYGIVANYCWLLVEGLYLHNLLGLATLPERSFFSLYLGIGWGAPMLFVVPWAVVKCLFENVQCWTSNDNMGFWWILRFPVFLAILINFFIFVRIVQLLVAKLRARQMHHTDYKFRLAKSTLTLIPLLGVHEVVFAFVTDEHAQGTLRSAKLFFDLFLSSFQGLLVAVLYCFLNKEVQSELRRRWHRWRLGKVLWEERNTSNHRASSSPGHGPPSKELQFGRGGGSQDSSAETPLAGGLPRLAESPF

GLP-1 receptor [2] = target: T2, GLP-1 receptor (UniProt P43220 24-463, limits assumed)
Target sequence in this assay (P43220 24-463 limits assumed): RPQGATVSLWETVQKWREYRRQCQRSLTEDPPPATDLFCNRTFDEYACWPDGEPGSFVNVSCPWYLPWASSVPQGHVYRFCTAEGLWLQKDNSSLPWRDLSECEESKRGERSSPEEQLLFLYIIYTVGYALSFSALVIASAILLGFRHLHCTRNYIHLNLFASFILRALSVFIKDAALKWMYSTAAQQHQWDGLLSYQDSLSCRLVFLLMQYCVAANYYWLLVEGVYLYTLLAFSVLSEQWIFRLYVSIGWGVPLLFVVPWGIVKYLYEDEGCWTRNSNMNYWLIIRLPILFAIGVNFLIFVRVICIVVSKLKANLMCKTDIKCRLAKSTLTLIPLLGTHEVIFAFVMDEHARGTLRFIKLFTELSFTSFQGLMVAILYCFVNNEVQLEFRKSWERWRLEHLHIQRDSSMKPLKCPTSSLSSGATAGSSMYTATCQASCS

GLP-1 receptor [3] = target: T2, GLP-1 receptor; remark: listed apart in the source
GLP-1 receptor [4] = target: T2, GLP-1 receptor; remark: listed apart in the source
glucagon receptor [5] = target: T1, glucagon receptor; remark: listed apart in the source
glucagon receptor [6] = target: T1, glucagon receptor; remark: listed apart in the source

| Binder | Glu IC50 (glucagon receptor [1]) [nM] | GLP-1 EC50 (GLP-1 receptor [3]) [nM] | Glucagon IC50 (glucagon receptor [5]) [nM] | further results |
| --- | --- | --- | --- | --- |
| [PhLac]TSEYSKYLDERRAQDFVQWLMNTGPSSGAPPPS (lactam 7-11; not fully specified) [[PLA6, E9, K12E16(Lactam)] Cex glucagon(6-39) (Table 13, peptide 5)] | 72 | – | – | GLP-1 EC50 (GLP-1 receptor [2]): 6 nM |
| HSQGTFTSDYARYLDARRAREFIKWLVRGRG [ANK2 (Bayer peptide)] | – | 0.28 | – | – |
| FTSDYSKYLDSRRAQDFVQWLMDT (first residue is phenyl lactic acid (PLA)) [PLA 6, D9, D28 glucagon D9(6-29) analog (Table 15, peptide 7)] | – | – | – | GLP-1 EC50 (GLP-1 receptor [4]): ~700 nM |
| FTSDYSKYLDERRAQDFVQWLMNTGPSSGAPPPS (lactam 7-11; not fully specified) [D9, K12E16(Lactam) Cex glucagon(6-39) (Table 13, peptide 4)] | 828 | – | – | GLP-1 EC50 (GLP-1 receptor [2]): 119 nM; GLP-1 EC50 (column without a head in this part of Table 15) (GLP-1 receptor [4]): 18 nM |
| FTSEYSKYLDERRAKDFVQWLMNTGPSSGAPPPS (lactam 11-15) [E9, E16K20(lactam) Cex glucagon(6-39) (Table 13, peptide 3)] | 42 | – | – | GLP-1 EC50 (GLP-1 receptor [2]): 36 nM |
| FTSEYSKYLDERRAQDFVQWLMNTGPSSGAPPPS (lactam 7-11) [E9, K12E16(lactam) Cex glucagon(6-39) (Table 13, peptide 2)] | 2010 | – | – | GLP-1 EC50 (GLP-1 receptor [2]): 63 nM |
| FTSEYSKYLDERRAQDFVQWLMNTGPSSGAPPPS [E9, K12, E16 Cex glucagon(6-39) (Table 13, peptide 1)] | 762 | – | – | – |
| HAEGTFTSEYSKYLDERRAKDFVQWLMDT-NH2 (lactam 16-20; N-terminus assumed; SMILES CSCC[C@H](NC(=O)[C@H](CC(C)C)NC(=O)[C@H](Cc1c[nH]c2ccccc12)NC(=O)[C@H](CCC(N)=O)NC(=O)[C@@H](NC(=O)[C@H](Cc1ccccc1)NC(=O)[C@H](CC(=O)O)NC(=O)[C@@H]1CCCCNC(=O)CC[C@H](NC(=O)[C@H](CC(=O)O)NC(=O)[C@H](CC(C)C)NC(=O)[C@H](Cc2ccc(O)cc2)NC(=O)[C@H](CCCCN)NC(=O)[C@H](CO)NC(=O)[C@H](Cc2ccc(O)cc2)NC(=O)[C@H](CCC(=O)O)NC(=O)[C@H](CO)NC(=O)[C@@H](NC(=O)[C@H](Cc2ccccc2)NC(=O)[C@@H](NC(=O)CNC(=O)[C@H](CCC(=O)O)NC(=O)[C@H](C)NC(=O)[C@@H](N)Cc2c[nH]cn2)[C@@H](C)O)[C@@H](C)O)C(=O)N[C@@H](CCCNC(=N)N)C(=O)N[C@@H](CCCNC(=N)N)C(=O)N[C@@H](C)C(=O)N1)C(C)C)C(=O)N[C@@H](CC(=O)O)C(=O)N[C@H](C(N)=O)[C@@H](C)O) [[A2E3, E16K20(Lactam), D28]G(1~29)] | – | 0.2 | – | Glucagon IC50 (PA = partial antagonist) (glucagon receptor [5]): 130 nM |
| [PhLac]TSDYSKYLDERRAKDFVEWLMDT-NH2 (lactam 15-19; N-terminus assumed; SMILES CSCC[C@H](NC(=O)[C@H](CC(C)C)NC(=O)[C@H](Cc1c[nH]c2ccccc12)NC(=O)[C@@H]1CCC(=O)NCCCC[C@H](NC(=O)[C@H](C)NC(=O)[C@H](CCCNC(=N)N)NC(=O)[C@H](CCCNC(=N)N)NC(=O)[C@H](CCC(=O)O)NC(=O)[C@H](CC(=O)O)NC(=O)[C@H](CC(C)C)NC(=O)[C@H](Cc2ccc(O)cc2)NC(=O)[C@H](CCCCN)NC(=O)[C@H](CO)NC(=O)[C@H](Cc2ccc(O)cc2)NC(=O)[C@H](CC(=O)O)NC(=O)[C@H](CO)NC(=O)[C@@H](NC(=O)[C@@H](O)Cc2ccccc2)[C@@H](C)O)C(=O)N[C@@H](CC(=O)O)C(=O)N[C@@H](Cc2ccccc2)C(=O)N[C@@H](C(C)C)C(=O)N1)C(=O)N[C@@H](CC(=O)O)C(=O)N[C@H](C(N)=O)[C@@H](C)O) [[PLA6, D9, E16, K20E24(Lactam), D28]G(6-29)] | – | 239 | 74 | – |
| GTFTSEYSKYLDERRAKDFVQWLMDT-NH2 (lactam 13-17; N-terminus assumed; SMILES CSCC[C@H](NC(=O)[C@H](CC(C)C)NC(=O)[C@H](Cc1c[nH]c2ccccc12)NC(=O)[C@H](CCC(N)=O)NC(=O)[C@@H](NC(=O)[C@H](Cc1ccccc1)NC(=O)[C@H](CC(=O)O)NC(=O)[C@@H]1CCCCNC(=O)CC[C@H](NC(=O)[C@H](CC(=O)O)NC(=O)[C@H](CC(C)C)NC(=O)[C@H](Cc2ccc(O)cc2)NC(=O)[C@H](CCCCN)NC(=O)[C@H](CO)NC(=O)[C@H](Cc2ccc(O)cc2)NC(=O)[C@H](CCC(=O)O)NC(=O)[C@H](CO)NC(=O)[C@@H](NC(=O)[C@H](Cc2ccccc2)NC(=O)[C@@H](NC(=O)CN)[C@@H](C)O)[C@@H](C)O)C(=O)N[C@@H](CCCNC(=N)N)C(=O)N[C@@H](CCCNC(=N)N)C(=O)N[C@@H](C)C(=O)N1)C(C)C)C(=O)N[C@@H](CC(=O)O)C(=O)N[C@H](C(N)=O)[C@@H](C)O) [[E9, E16K20(lactam), D28]G(4~29)] | – | 151 | 10 to 30 | – |
| AEGTFTSEYSKYLDERRAKDFVQWLMDT-NH2 (lactam 15-19) [[A2E3, E16K20(Lactam), D28]G(2~29)] | – | – | 63 | – |
| [PhLac]TSDYSKYLDERRAQDFVEWLMKT-NH2 (lactam 19-23; N-terminus assumed; SMILES CSCC[C@@H]1NC(=O)[C@H](CC(C)C)NC(=O)[C@H](Cc2c[nH]c3ccccc23)NC(=O)[C@@H](NC(=O)[C@@H](NC(=O)[C@H](Cc2ccccc2)NC(=O)[C@H](CC(=O)O)NC(=O)[C@H](CCC(N)=O)NC(=O)[C@H](C)NC(=O)[C@H](CCCNC(=N)N)NC(=O)[C@H](CCCNC(=N)N)NC(=O)[C@H](CCC(=O)O)NC(=O)[C@H](CC(=O)O)NC(=O)[C@H](CC(C)C)NC(=O)[C@H](Cc2ccc(O)cc2)NC(=O)[C@H](CCCCN)NC(=O)[C@H](CO)NC(=O)[C@H](Cc2ccc(O)cc2)NC(=O)[C@H](CC(=O)O)NC(=O)[C@H](CO)NC(=O)[C@@H](NC(=O)[C@@H](O)Cc2ccccc2)[C@@H](C)O)C(C)C)CCC(=O)NCCCC[C@@H](C(=O)N[C@H](C(N)=O)[C@@H](C)O)NC1=O) [[PLA6, D9, E16, E24K28(lactam)]G(6~29)] | – | 289 | 22 | – |
| [PhLac]TSDYSKYLDERRAKDFVQWLMDT-NH2 (lactam 11-15) [[PLA6, D9, E16K20(lactam), D28]G(6-29)] | – | – | 10 to 30 | Glucagon IC50 (glucagon receptor [6]): 6 nM; GLP-1 EC50 (GLP-1 receptor [4]): 4 nM |
| [PhLac]TSDYSKYLDERRAQDFVQWLMDT-NH2 (lactam 7-11; N-terminus assumed; SMILES CSCC[C@H](NC(=O)[C@H](CC(C)C)NC(=O)[C@H](Cc1c[nH]c2ccccc12)NC(=O)[C@H](CCC(N)=O)NC(=O)[C@@H](NC(=O)[C@H](Cc1ccccc1)NC(=O)[C@H](CC(=O)O)NC(=O)[C@H](CCC(N)=O)NC(=O)[C@H](C)NC(=O)[C@H](CCCNC(=N)N)NC(=O)[C@H](CCCNC(=N)N)NC(=O)[C@@H]1CCC(=O)NCCCC[C@H](NC(=O)[C@H](CO)NC(=O)[C@H](Cc2ccc(O)cc2)NC(=O)[C@H](CC(=O)O)NC(=O)[C@H](CO)NC(=O)[C@@H](NC(=O)[C@@H](O)Cc2ccccc2)[C@@H](C)O)C(=O)N[C@@H](Cc2ccc(O)cc2)C(=O)N[C@@H](CC(C)C)C(=O)N[C@@H](CC(=O)O)C(=O)N1)C(C)C)C(=O)N[C@@H](CC(=O)O)C(=O)N[C@H](C(N)=O)[C@@H](C)O) [[PLA6, D9, K12E16(Lactam), D28]G(6-29)] | – | 177 | 63 | Glucagon IC50 (glucagon receptor [6]): 13 nM; GLP-1 EC50 (GLP-1 receptor [4]): 21 nM |
